Data as given in article PMC9352680, “A comprehensive thermodynamic model for RNA binding by the Saccharomyces cerevisiae Pumilio protein PUF4”.

T1: PUF4 RNA-binding domain (Saccharomyces cerevisiae, UniProt P25339 537-888)
T1 sequence: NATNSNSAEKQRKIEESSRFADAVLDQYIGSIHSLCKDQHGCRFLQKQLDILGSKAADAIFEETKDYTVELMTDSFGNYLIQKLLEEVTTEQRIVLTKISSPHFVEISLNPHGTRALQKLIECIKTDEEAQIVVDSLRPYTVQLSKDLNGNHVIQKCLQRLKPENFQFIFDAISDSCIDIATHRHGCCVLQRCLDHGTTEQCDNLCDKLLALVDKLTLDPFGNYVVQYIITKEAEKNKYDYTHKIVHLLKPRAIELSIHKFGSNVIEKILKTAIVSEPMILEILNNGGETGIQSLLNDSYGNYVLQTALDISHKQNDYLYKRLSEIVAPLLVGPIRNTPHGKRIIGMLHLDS


Target: T1, PUF4 RNA-binding domain
Test: Mg; RNA-MaP; 20 mM Na-HEPES pH 7.4, 30 mM KOAc, 0.75 mM MgCl2, 0.1% Tween-20, 5% glycerol, 0.1 mg/mL BSA, 2 mM DTT; 25 C; 0.0125-409.6 nM protein
Conditions: tags: N-His6-TEV cleaved; C-SNAP kept, Cy3B-labelled; label: tethered on chip by stalled RNA polymerase

| Binder | Kd |
| --- | --- |
| ACAAACUGAACUAUUAACAAAC (ssRNA) [Ib_S3_P5E.1_K5.1_C5.1_H5.1_[T3A]_A5.1_[T5C]_F5.1_T5.1] | > 2300 nM |
| ACAAACAGGAUUAUUAACAAAC (ssRNA) [Ib_S3_P5E.1_K5.1_C5.1_H5.1_[T1A]_[T3G]_A5.1_F5.1_T5.1] | > 2300 nM |
| ACAAACUGCAUUUUAACAAAC (ssRNA) [Ib_S3_P4E.1_K4.1_C4.1_H4.1_[T3C]_A4.1_[A6T]_F4.1_T4.1] | 1910 nM |
| ACAAACUGCAUAAUAACAAAC (ssRNA) [Ib_S3_P4E.1_K4.1_C4.1_H4.1_[T3C]_A4.1_[T7A]_F4.1_T4.1] | 1450 nM |
| ACAAACUUUAUUAUUUACAAAC (ssRNA) [Ib_S3_P5E.1_K5.1_C5.1_H5.1_[G2T]_A5.1_F5.1_[A10T]_T5.1] | > 2300 nM |
| Ia_S2_P5E.1_K5.1_C5.1_H5.1_A5.1_[T5A]_F5.1_T5.1 (ssRNA) RNA: UUUGAUUAAUAUGAUAUCGUUCUUUCUUGUAAUAUUAUUCUUUCUCGAUAUCAUAUUAAUCUUU | 4.27 nM |
| Ia_S2_P5E.1_K5.1_C5.1_H5.1_A5.1_[T6C]_F5.1_T5.1 (ssRNA) RNA: UUUGAUUAAUAUGAUAUCGUUCUUUCUUGUAUCAUUAUUCUUUCUCGAUAUCAUAUUAAUCUUU | 1.73 nM |
| Ia_S2_P5E.1_K5.1_C5.1_H5.1_A5.1_[A7C]_F5.1_T5.1 (ssRNA) RNA: UUUGAUUAAUAUGAUAUCGUUCUUUCUUGUAUUCUUAUUCUUUCUCGAUAUCAUAUUAAUCUUU | 3.06 nM |
| Ia_S2_P5E.1_K5.1_C5.1_H5.1_A5.1_[A7T]_F5.1_T5.1 (ssRNA) RNA: UUUGAUUAAUAUGAUAUCGUUCUUUCUUGUAUUUUUAUUCUUUCUCGAUAUCAUAUUAAUCUUU | 2.11 nM |
| Ia_S2_P5E.1_K5.1_C5.1_H5.1_A5.1_[T6A]_F5.1_T5.1 (ssRNA) RNA: UUUGAUUAAUAUGAUAUCGUUCUUUCUUGUAUAAUUAUUCUUUCUCGAUAUCAUAUUAAUCUUU | 2.33 nM |
| Ia_S2_P5E.1_K5.1_C5.1_H5.1_A5.1_[A7G]_F5.1_T5.1 (ssRNA) RNA: UUUGAUUAAUAUGAUAUCGUUCUUUCUUGUAUUGUUAUUCUUUCUCGAUAUCAUAUUAAUCUUU | 11.6 nM |
| ACAAACUGUCUUCUUAACAAAC (ssRNA) [Ib_S3_P5E.1_K5.1_C5.1_H5.1_[A4C]_A5.1_[A7C]_F5.1_T5.1] | 2190 nM |
| ACAAACGGUAUCAUUAACAAAC (ssRNA) [Ib_S3_P5E.1_K5.1_C5.1_H5.1_[T1G]_A5.1_[T6C]_F5.1_T5.1] | 1450 nM |
| ACAAACUAUUUUAUUAACAAAC (ssRNA) [Ib_S3_P5E.1_K5.1_C5.1_H5.1_[G2A]_[A4T]_A5.1_F5.1_T5.1] | > 2300 nM |
| ACAAACCGUAGAUUAACAAAC (ssRNA) [Ib_S3_P4E.1_K4.1_C4.1_H4.1_[T1C]_A4.1_[T5G]_F4.1_T4.1] | 455 nM |
| UCUCUUUAUAUAUAUCUCUU (ssRNA) [Ia_S1_P3E.1_K3.1_C3.1_H3.1_[G2A]_A3.1_F3.1_T3.1] | 637 nM |
| ACAAACAGUAUCAUUAACAAAC (ssRNA) [Ib_S3_P5E.1_K5.1_C5.1_H5.1_[T1A]_A5.1_[T6C]_F5.1_T5.1] | > 2300 nM |
| ACAAACCGUAUAAUUAACAAAC (ssRNA) [Ib_S3_P5E.1_K5.1_C5.1_H5.1_[T1C]_A5.1_[T6A]_F5.1_T5.1] | 1180 nM |
| ACAAACAGUAGAUUAACAAAC (ssRNA) [Ib_S3_P4E.1_K4.1_C4.1_H4.1_[T1A]_A4.1_[T5G]_F4.1_T4.1] | 828 nM |
| ACAAACCUUAUUAUUAACAAAC (ssRNA) [Ib_S3_P5E.1_K5.1_C5.1_H5.1_[T1C]_[G2T]_A5.1_F5.1_T5.1] | > 2300 nM |

| Binder | Kd |
| --- | --- |
| ACAAACGGUCUUAUUAACAAAC (ssRNA) [Ib_S3_P5E.1_K5.1_C5.1_H5.1_[T1G]_[A4C]_A5.1_F5.1_T5.1] | > 2300 nM |
| ACAAACUGGACUAUUAACAAAC (ssRNA) [Ib_S3_P5E.1_K5.1_C5.1_H5.1_[T3G]_A5.1_[T5C]_F5.1_T5.1] | > 2300 nM |
| ACAAACUGGAUUACUAACAAAC (ssRNA) [Ib_S3_P5E.1_K5.1_C5.1_H5.1_[T3G]_A5.1_F5.1_[T8C]_T5.1] | > 2300 nM |
| ACAAACAGUAUAAUUAACAAAC (ssRNA) [Ib_S3_P5E.1_K5.1_C5.1_H5.1_[T1A]_A5.1_[T6A]_F5.1_T5.1] | 1740 nM |
| ACAAACUCUAUAAUUAACAAAC (ssRNA) [Ib_S3_P5E.1_K5.1_C5.1_H5.1_[G2C]_A5.1_[T6A]_F5.1_T5.1] | > 2300 nM |
| ACAAACUGUCUUAUUUACAAAC (ssRNA) [Ib_S3_P5E.1_K5.1_C5.1_H5.1_[A4C]_A5.1_F5.1_[A10T]_T5.1] | 641 nM |
| ACAAACUGGAUUAAUAACAAAC (ssRNA) [Ib_S3_P5E.1_K5.1_C5.1_H5.1_[T3G]_A5.1_F5.1_[T8A]_T5.1] | > 2300 nM |
| ACAAACUGAAUACUAACAAAC (ssRNA) [Ib_S3_P4E.1_K4.1_C4.1_H4.1_[T3A]_A4.1_[T7C]_F4.1_T4.1] | 1130 nM |
| ACAAACUUUAAUAUUAACAAAC (ssRNA) [Ib_S3_P5E.1_K5.1_C5.1_H5.1_[G2T]_A5.1_[T5A]_F5.1_T5.1] | > 2300 nM |
| ACAAACUGAAUUAUAAACAAAC (ssRNA) [Ib_S3_P5E.1_K5.1_C5.1_H5.1_[T3A]_A5.1_F5.1_[T9A]_T5.1] | > 2300 nM |
| Ib_S4_P3E.1_K3.1_C3.1_H3.1_A3.1_F3.1_[T7G]_[A8C]_T3.1 (ssRNA) RNA: UUUGACAACUGAUCGUUCUUUCUUGUAUAGCUUCUUUCUCGAUCAGUUGUCUUU | 85.3 nM |
| Ib_S4_P3E.1_K3.1_C3.1_H3.1_A3.1_F3.1_[T7C]_[A8G]_T3.1 (ssRNA) RNA: UUUGACAACUGAUCGUUCUUUCUUGUAUACGUUCUUUCUCGAUCAGUUGUCUUU | 60.4 nM |
| Ib_S4_P3E.1_K3.1_C3.1_H3.1_A3.1_F3.1_[T7C]_[A8C]_T3.1 (ssRNA) RNA: UUUGACAACUGAUCGUUCUUUCUUGUAUACCUUCUUUCUCGAUCAGUUGUCUUU | 28.9 nM |
| ACAAACCGUAUUUUAACAAAC (ssRNA) [Ib_S3_P4E.1_K4.1_C4.1_H4.1_[T1C]_A4.1_[A6T]_F4.1_T4.1] | 1400 nM |
| ACAAACAUUAUAUUAACAAAC (ssRNA) [Ib_S3_P4E.1_K4.1_C4.1_H4.1_[T1A]_[G2T]_A4.1_F4.1_T4.1] | > 2300 nM |
| ACAAACAGUAAAUUAACAAAC (ssRNA) [Ib_S3_P4E.1_K4.1_C4.1_H4.1_[T1A]_A4.1_[T5A]_F4.1_T4.1] | 596 nM |
| ACAAACUAUAUAAUUAACAAAC (ssRNA) [Ib_S3_P5E.1_K5.1_C5.1_H5.1_[G2A]_A5.1_[T6A]_F5.1_T5.1] | 1050 nM |
| ACAAACUAUAGUAUUAACAAAC (ssRNA) [Ib_S3_P5E.1_K5.1_C5.1_H5.1_[G2A]_A5.1_[T5G]_F5.1_T5.1] | > 2300 nM |
| ACAAACGGUAUUUUUAACAAAC (ssRNA) [Ib_S3_P5E.1_K5.1_C5.1_H5.1_[T1G]_A5.1_[A7T]_F5.1_T5.1] | 1600 nM |
| ACAAACUAUUUAUUAACAAAC (ssRNA) [Ib_S3_P4E.1_K4.1_C4.1_H4.1_[G2A]_[A4T]_A4.1_F4.1_T4.1] | > 2300 nM |

| Binder | Kd |
| --- | --- |
| ACAAACUGACUUAUUAACAAAC (ssRNA) [Ib_S3_P5E.1_K5.1_C5.1_H5.1_[T3A]_[A4C]_A5.1_F5.1_T5.1] | > 2300 nM |
| ACAAACAGUAUUUUUAACAAAC (ssRNA) [Ib_S3_P5E.1_K5.1_C5.1_H5.1_[T1A]_A5.1_[A7T]_F5.1_T5.1] | > 2300 nM |
| ACAAACUCCAUAUUAACAAAC (ssRNA) [Ib_S3_P4E.1_K4.1_C4.1_H4.1_[G2C]_[T3C]_A4.1_F4.1_T4.1] | > 2300 nM |
| ACAAACUUUAUCAUUAACAAAC (ssRNA) [Ib_S3_P5E.1_K5.1_C5.1_H5.1_[G2T]_A5.1_[T6C]_F5.1_T5.1] | > 2300 nM |
| ACAAACUAAAUUAUUAACAAAC (ssRNA) [Ib_S3_P5E.1_K5.1_C5.1_H5.1_[G2A]_[T3A]_A5.1_F5.1_T5.1] | > 2300 nM |
| ACAAACAGUAUCUUAACAAAC (ssRNA) [Ib_S3_P4E.1_K4.1_C4.1_H4.1_[T1A]_A4.1_[A6C]_F4.1_T4.1] | > 2300 nM |
| ACAAACUCCAUUAUUAACAAAC (ssRNA) [Ib_S3_P5E.1_K5.1_C5.1_H5.1_[G2C]_[T3C]_A5.1_F5.1_T5.1] | > 2300 nM |
| ACAAACUCUAUAGUAACAAAC (ssRNA) [Ib_S3_P4E.1_K4.1_C4.1_H4.1_[G2C]_A4.1_[T7G]_F4.1_T4.1] | > 2300 nM |
| ACAAACCGUAUUAUUCACAAAC (ssRNA) [Ib_S3_P5E.1_K5.1_C5.1_H5.1_[T1C]_A5.1_F5.1_[A10C]_T5.1] | > 2300 nM |
| ACAAACUGCAUUACUAACAAAC (ssRNA) [Ib_S3_P5E.1_K5.1_C5.1_H5.1_[T3C]_A5.1_F5.1_[T8C]_T5.1] | > 2300 nM |
| ACAAACCGUAUUUUUAACAAAC (ssRNA) [Ib_S3_P5E.1_K5.1_C5.1_H5.1_[T1C]_A5.1_[A7T]_F5.1_T5.1] | > 2300 nM |
| ACAAACUGGAUUAUGAACAAAC (ssRNA) [Ib_S3_P5E.1_K5.1_C5.1_H5.1_[T3G]_A5.1_F5.1_[T9G]_T5.1] | > 2300 nM |
| ACAAACUGUCUUACUAACAAAC (ssRNA) [Ib_S3_P5E.1_K5.1_C5.1_H5.1_[A4C]_A5.1_F5.1_[T8C]_T5.1] | 1030 nM |
| ACAAACUGUCCUAUUAACAAAC (ssRNA) [Ib_S3_P5E.1_K5.1_C5.1_H5.1_[A4C]_A5.1_[T5C]_F5.1_T5.1] | 545 nM |
| ACAAACUGAAUAAUAACAAAC (ssRNA) [Ib_S3_P4E.1_K4.1_C4.1_H4.1_[T3A]_A4.1_[T7A]_F4.1_T4.1] | > 2300 nM |
| ACAAACUAUAUUAUUUACAAAC (ssRNA) [Ib_S3_P5E.1_K5.1_C5.1_H5.1_[G2A]_A5.1_F5.1_[A10T]_T5.1] | 994 nM |
| UCUCUUUGUAUACAUCUCUU (ssRNA) [Ia_S1_P3E.1_K3.1_C3.1_H3.1_A3.1_F3.1_[T7C]_T3.1] | 44.6 nM |
| ACAAACAGUCUUAUUAACAAAC (ssRNA) [Ib_S3_P5E.1_K5.1_C5.1_H5.1_[T1A]_[A4C]_A5.1_F5.1_T5.1] | > 2300 nM |
| ACAAACCCUAUUAUUAACAAAC (ssRNA) [Ib_S3_P5E.1_K5.1_C5.1_H5.1_[T1C]_[G2C]_A5.1_F5.1_T5.1] | > 2300 nM |
| ACAAACUAUAUUAAUAACAAAC (ssRNA) [Ib_S3_P5E.1_K5.1_C5.1_H5.1_[G2A]_A5.1_F5.1_[T8A]_T5.1] | 1580 nM |
